Non-standard residues stand in square brackets, D forms with d. No end group written: not given here. *: point of attachment. Phe(F5) = N[C@@H](Cc1c(F)c(F)c(F)c(F)c1F)C(=O)O; Desaminotyrosyl = O=C(CCc1ccc(O)cc1)*; NMeY = CN[C@@H](Cc1ccc(O)cc1)C(=O)O; Agmatine = N=C(N)NCCCCN*; NMeA = CN[C@@H](C)C(=O)O; Nle = CCCC[C@H](N)C(=O)O; Orn = NCCC[C@H](N)C(=O)O; Abu = CC[C@H](N)C(=O)O; Aoc = NCCCCCCCC(=O)O; Ava = NCCCCC(=O)O; GABA = NCCCC(=O)O
T1: GHRH receptor of human pituitary membranes (human, UniProt Q02643)
T1 sequence: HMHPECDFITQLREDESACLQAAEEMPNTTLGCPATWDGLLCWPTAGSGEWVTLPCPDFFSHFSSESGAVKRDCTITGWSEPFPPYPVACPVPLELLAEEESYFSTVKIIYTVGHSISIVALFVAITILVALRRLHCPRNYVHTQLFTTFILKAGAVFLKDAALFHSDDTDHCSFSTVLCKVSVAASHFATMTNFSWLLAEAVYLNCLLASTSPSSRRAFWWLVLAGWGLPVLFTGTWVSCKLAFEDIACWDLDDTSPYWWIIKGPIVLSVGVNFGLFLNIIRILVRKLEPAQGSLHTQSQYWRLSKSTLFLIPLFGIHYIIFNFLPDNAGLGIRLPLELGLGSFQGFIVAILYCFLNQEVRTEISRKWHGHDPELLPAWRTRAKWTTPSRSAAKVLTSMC

B1: P-27413 [Dat^1, Gln^8, His^11, Orn^12, Abu^15, His^20, Orn^21, Nle^27, Asp^28]hGHRH(1-29)NH-CH3 (peptide)
peptide: [Desaminotyrosyl]ADAIFTQSYH[Orn]VL[Abu]QLSAH[Orn]LLQDI[Nle]DR-NHMe
SMILES: CCCC[C@H](NC(=O)[C@@H](NC(=O)[C@H](CC(=O)O)NC(=O)[C@H](CCC(N)=O)NC(=O)[C@H](CC(C)C)NC(=O)[C@H](CC(C)C)NC(=O)[C@H](CCCN)NC(=O)[C@H](Cc1c[nH]cn1)NC(=O)[C@H](C)NC(=O)[C@H](CO)NC(=O)[C@H](CC(C)C)NC(=O)[C@H](CCC(N)=O)NC(=O)[C@H](CC)NC(=O)[C@H](CC(C)C)NC(=O)[C@@H](NC(=O)[C@H](CCCN)NC(=O)[C@H](Cc1c[nH]cn1)NC(=O)[C@H](Cc1ccc(O)cc1)NC(=O)[C@H](CO)NC(=O)[C@H](CCC(N)=O)NC(=O)[C@@H](NC(=O)[C@H](Cc1ccccc1)NC(=O)[C@@H](NC(=O)[C@H](C)NC(=O)[C@H](CC(=O)O)NC(=O)[C@H](C)NC(=O)CCc1ccc(O)cc1)[C@@H](C)CC)[C@@H](C)O)C(C)C)[C@@H](C)CC)C(=O)N[C@@H](CC(=O)O)C(=O)N[C@@H](CCCNC(=N)N)C(=O)NC
B2: P-27415 [N-Me-Tyr^1, Orn^12, Abu^15, Orn^21, Nle^27, Gab^30]hGHRH(1-30)NH-CH3 (peptide)
peptide: YADAIFTNSYRKVLGQLSARKLLQDIMSRQ
modifications: N-Me-Tyr^1; Orn^12; Abu^15; Orn^21; Nle^27; Gab^30 (in place of Gln^30); C-terminal -NH-CH3
B3: P-20357 [Dat^1, D-Ala^2, N-Me-Ala^8, Orn^12, Abu^15, Orn^21, Nle^27, Asp^28, Agm^29]hGHRH(1-29)NH2 (peptide)
peptide: [Desaminotyrosyl][dA]DAIFT[NMeA]SYR[Orn]VL[Abu]QLSAR[Orn]LLQDI[Nle]D[Agmatine]
SMILES: CCCC[C@H](NC(=O)[C@@H](NC(=O)[C@H](CC(=O)O)NC(=O)[C@H](CCC(N)=O)NC(=O)[C@H](CC(C)C)NC(=O)[C@H](CC(C)C)NC(=O)[C@H](CCCN)NC(=O)[C@H](CCCNC(=N)N)NC(=O)[C@H](C)NC(=O)[C@H](CO)NC(=O)[C@H](CC(C)C)NC(=O)[C@H](CCC(N)=O)NC(=O)[C@H](CC)NC(=O)[C@H](CC(C)C)NC(=O)[C@@H](NC(=O)[C@H](CCCN)NC(=O)[C@H](CCCNC(=N)N)NC(=O)[C@H](Cc1ccc(O)cc1)NC(=O)[C@H](CO)NC(=O)[C@H](C)N(C)C(=O)[C@@H](NC(=O)[C@H](Cc1ccccc1)NC(=O)[C@@H](NC(=O)[C@H](C)NC(=O)[C@H](CC(=O)O)NC(=O)[C@@H](C)NC(=O)CCc1ccc(O)cc1)[C@@H](C)CC)[C@@H](C)O)C(C)C)[C@@H](C)CC)C(=O)N[C@@H](CC(=O)O)C(=O)NCCCCNC(=N)N
B4: P-27414 [N-Me-Tyr^1, D-Ala^2, Fpa5^6, Orn^12, Abu^15, Orn^21, Nle^27, Gab^30]hGHRH(1-30)NH-CH3 (peptide)
peptide: B2 peptide
modifications: N-Me-Tyr^1; D-Ala^2; Fpa5^6; Orn^12; Abu^15; Orn^21; Nle^27; Gab^30 (in place of Gln^30); C-terminal -NH-CH3
B5: P-21303 [N-Me-Tyr^1, D-Ala^2, Orn^12, Abu^15, Orn^21, Nle^27, Asp^28, Amc^30]hGHRH(1-30)NH2 (peptide)
peptide: [NMeY][dA]DAIFTNSYR[Orn]VL[Abu]QLSAR[Orn]LLQDI[Nle]DR[Aoc]-NH2
modifications: N-terminus assumed
SMILES: CCCC[C@H](NC(=O)[C@@H](NC(=O)[C@H](CC(=O)O)NC(=O)[C@H](CCC(N)=O)NC(=O)[C@H](CC(C)C)NC(=O)[C@H](CC(C)C)NC(=O)[C@H](CCCN)NC(=O)[C@H](CCCNC(=N)N)NC(=O)[C@H](C)NC(=O)[C@H](CO)NC(=O)[C@H](CC(C)C)NC(=O)[C@H](CCC(N)=O)NC(=O)[C@H](CC)NC(=O)[C@H](CC(C)C)NC(=O)[C@@H](NC(=O)[C@H](CCCN)NC(=O)[C@H](CCCNC(=N)N)NC(=O)[C@H](Cc1ccc(O)cc1)NC(=O)[C@H](CO)NC(=O)[C@H](CC(N)=O)NC(=O)[C@@H](NC(=O)[C@H](Cc1ccccc1)NC(=O)[C@@H](NC(=O)[C@H](C)NC(=O)[C@H](CC(=O)O)NC(=O)[C@@H](C)NC(=O)[C@H](Cc1ccc(O)cc1)NC)[C@@H](C)CC)[C@@H](C)O)C(C)C)[C@@H](C)CC)C(=O)N[C@@H](CC(=O)O)C(=O)N[C@@H](CCCNC(=N)N)C(=O)NCCCCCCCC(N)=O
B6: P-21301 [N-Me-Tyr^1, Orn^12, Abu^15, Orn^21, Nle^27, Asp^28, Amc^30]hGHRH(1-30)NH2 (peptide)
peptide: [NMeY]ADAIFTNSYR[Orn]VL[Abu]QLSAR[Orn]LLQDI[Nle]DR[Aoc]-NH2
modifications: N-terminus assumed
SMILES: CCCC[C@H](NC(=O)[C@@H](NC(=O)[C@H](CC(=O)O)NC(=O)[C@H](CCC(N)=O)NC(=O)[C@H](CC(C)C)NC(=O)[C@H](CC(C)C)NC(=O)[C@H](CCCN)NC(=O)[C@H](CCCNC(=N)N)NC(=O)[C@H](C)NC(=O)[C@H](CO)NC(=O)[C@H](CC(C)C)NC(=O)[C@H](CCC(N)=O)NC(=O)[C@H](CC)NC(=O)[C@H](CC(C)C)NC(=O)[C@@H](NC(=O)[C@H](CCCN)NC(=O)[C@H](CCCNC(=N)N)NC(=O)[C@H](Cc1ccc(O)cc1)NC(=O)[C@H](CO)NC(=O)[C@H](CC(N)=O)NC(=O)[C@@H](NC(=O)[C@H](Cc1ccccc1)NC(=O)[C@@H](NC(=O)[C@H](C)NC(=O)[C@H](CC(=O)O)NC(=O)[C@H](C)NC(=O)[C@H](Cc1ccc(O)cc1)NC)[C@@H](C)CC)[C@@H](C)O)C(C)C)[C@@H](C)CC)C(=O)N[C@@H](CC(=O)O)C(=O)N[C@@H](CCCNC(=N)N)C(=O)NCCCCCCCC(N)=O
B7: P-21300 [Dat^1, D-Ala^2, Orn^12, Abu^15, Orn^21, Nle^27, Asp^28, Amc^30]hGHRH(1-30)NH2 (peptide)
peptide: [Desaminotyrosyl][dA]DAIFTNSYR[Orn]VL[Abu]QLSAR[Orn]LLQDI[Nle]DR[Aoc]-NH2
SMILES: CCCC[C@H](NC(=O)[C@@H](NC(=O)[C@H](CC(=O)O)NC(=O)[C@H](CCC(N)=O)NC(=O)[C@H](CC(C)C)NC(=O)[C@H](CC(C)C)NC(=O)[C@H](CCCN)NC(=O)[C@H](CCCNC(=N)N)NC(=O)[C@H](C)NC(=O)[C@H](CO)NC(=O)[C@H](CC(C)C)NC(=O)[C@H](CCC(N)=O)NC(=O)[C@H](CC)NC(=O)[C@H](CC(C)C)NC(=O)[C@@H](NC(=O)[C@H](CCCN)NC(=O)[C@H](CCCNC(=N)N)NC(=O)[C@H](Cc1ccc(O)cc1)NC(=O)[C@H](CO)NC(=O)[C@H](CC(N)=O)NC(=O)[C@@H](NC(=O)[C@H](Cc1ccccc1)NC(=O)[C@@H](NC(=O)[C@H](C)NC(=O)[C@H](CC(=O)O)NC(=O)[C@@H](C)NC(=O)CCc1ccc(O)cc1)[C@@H](C)CC)[C@@H](C)O)C(C)C)[C@@H](C)CC)C(=O)N[C@@H](CC(=O)O)C(=O)N[C@@H](CCCNC(=N)N)C(=O)NCCCCCCCC(N)=O
B8: P-25503 [N-Me-Tyr^1, Abu^2, Orn^12, Abu^15, Orn^21, Nle^27, Gab^30]hGHRH(1-30)NH2 (peptide)
peptide: B2 peptide
modifications: N-Me-Tyr^1; Abu^2; Orn^12; Abu^15; Orn^21; Nle^27; Gab^30 (in place of Gln^30); C-terminal -NH2
B9: P-27400 [Dat^1, D-Ala^2, Orn^12, Abu^15, Orn^21, Nle^27, Asp^28]hGHRH(1-29)NH-CH3 (peptide)
peptide: [Desaminotyrosyl][dA]DAIFTNSYR[Orn]VL[Abu]QLSAR[Orn]LLQDI[Nle]DR-NHMe
SMILES: CCCC[C@H](NC(=O)[C@@H](NC(=O)[C@H](CC(=O)O)NC(=O)[C@H](CCC(N)=O)NC(=O)[C@H](CC(C)C)NC(=O)[C@H](CC(C)C)NC(=O)[C@H](CCCN)NC(=O)[C@H](CCCNC(=N)N)NC(=O)[C@H](C)NC(=O)[C@H](CO)NC(=O)[C@H](CC(C)C)NC(=O)[C@H](CCC(N)=O)NC(=O)[C@H](CC)NC(=O)[C@H](CC(C)C)NC(=O)[C@@H](NC(=O)[C@H](CCCN)NC(=O)[C@H](CCCNC(=N)N)NC(=O)[C@H](Cc1ccc(O)cc1)NC(=O)[C@H](CO)NC(=O)[C@H](CC(N)=O)NC(=O)[C@@H](NC(=O)[C@H](Cc1ccccc1)NC(=O)[C@@H](NC(=O)[C@H](C)NC(=O)[C@H](CC(=O)O)NC(=O)[C@@H](C)NC(=O)CCc1ccc(O)cc1)[C@@H](C)CC)[C@@H](C)O)C(C)C)[C@@H](C)CC)C(=O)N[C@@H](CC(=O)O)C(=O)N[C@@H](CCCNC(=N)N)C(=O)NC
B10: P-22325 [N-Me-Tyr^1, Gln^8, Orn^12, Abu^15, Orn^21, Nle^27, Asp^28, Apa^30]hGHRH(1-30)NH2 (peptide)
peptide: [NMeY]ADAIFTQSYR[Orn]VL[Abu]QLSAR[Orn]LLQDI[Nle]DR[Ava]-NH2
modifications: N-terminus assumed
SMILES: CCCC[C@H](NC(=O)[C@@H](NC(=O)[C@H](CC(=O)O)NC(=O)[C@H](CCC(N)=O)NC(=O)[C@H](CC(C)C)NC(=O)[C@H](CC(C)C)NC(=O)[C@H](CCCN)NC(=O)[C@H](CCCNC(=N)N)NC(=O)[C@H](C)NC(=O)[C@H](CO)NC(=O)[C@H](CC(C)C)NC(=O)[C@H](CCC(N)=O)NC(=O)[C@H](CC)NC(=O)[C@H](CC(C)C)NC(=O)[C@@H](NC(=O)[C@H](CCCN)NC(=O)[C@H](CCCNC(=N)N)NC(=O)[C@H](Cc1ccc(O)cc1)NC(=O)[C@H](CO)NC(=O)[C@H](CCC(N)=O)NC(=O)[C@@H](NC(=O)[C@H](Cc1ccccc1)NC(=O)[C@@H](NC(=O)[C@H](C)NC(=O)[C@H](CC(=O)O)NC(=O)[C@H](C)NC(=O)[C@H](Cc1ccc(O)cc1)NC)[C@@H](C)CC)[C@@H](C)O)C(C)C)[C@@H](C)CC)C(=O)N[C@@H](CC(=O)O)C(=O)N[C@@H](CCCNC(=N)N)C(=O)NCCCCC(N)=O
B11: P-25501 [N-Me-Tyr^1, D-Ala^2, Orn^12, Abu^15, Orn^21, Nle^27, Gab^30]hGHRH(1-30)NH2 (peptide)
peptide: B2 peptide
modifications: N-Me-Tyr^1; D-Ala^2; Orn^12; Abu^15; Orn^21; Nle^27; Gab^30 (in place of Gln^30); C-terminal -NH2

biological target: T1, GHRH receptor of human pituitary …; assay: competition vs 125I-JV-1-42, human pituitary membranes;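 further: pituitaries used were normal human glands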
From the text: Normal human pituitaries were purchased from the National Hormone and Peptide Program (A.F. Parlow, Los Angeles, County Harbor-UCLA Medical Center, Torrance, Calif.).

IC50 | relative affinity (binding potency) vs JI-38 | Binder
2.45 nM | 1.78 vs JI-38=1 | B1
3.02 nM | 1.44 vs JI-38=1 | B2
0.86 nM | 5.06 vs JI-38=1 | B3
1.56 nM | 2.79 vs JI-38=1 | B4
1.87 nM | 2.32 vs JI-38=1 | B5
2.99 nM | 1.45 vs JI-38=1 | B6
3.61 nM | 1.2 vs JI-38=1 | B7
3.05 nM | 1.43 vs JI-38=1 | [NMeY][dA]DAI[Phe(F5)]TNSYR[Orn]VL[Abu]QLSAR[Orn]LLQDI[Nle]D[Agmatine] [P-20359 [N-Me-Tyr^1, D-Ala^2, Fpa5^6, Orn^12, Abu^15, Orn^21, Nle^27, Asp^28, Agm^29]hGHRH(1-29)NH2]
1.22 nM | 3.57 vs JI-38=1 | [NMeY]ADAIFTQSYR[Orn]VL[Abu]QLSAR[Orn]LLQDI[Nle]SRQ-{GABA-NH2} [P-29703 [N-Me-Tyr^1, Gln^8, Orn^12, Abu^15, Orn^21, Nle^27, Gln-Gab^30]hGHRH(1-30)NH2]
1.18 nM | 3.67 vs JI-38=1 | B8
3.35 nM | 1.3 vs JI-38=1 | B9
3.8 nM | 1.14 vs JI-38=1 | B10
1.07 nM | 4.07 vs JI-38=1 | B11
